Laboratory results: article PMC9249894 (2022)

Molecular target: Ubiquitin (Homo sapiens, UniProt P0CG48)
Test: NMR titration

Kd: 370 µM
B1: CIN85 SH3c 263-333 (protein)
chain: DSRTKSKDYCKVIFPYEAQNDDELTIKEGDIVTLINKDCIDVGWWEGELNGRRGVFPDNFVKLLPPDFEKE
